This is an account of results in the RNAGym collection of RNA variant scans (doi:10.1073/pnas.2313332121).

First the molecules themselves.
B1: TPR t1 (parent)
chain: GACCAAUCUGCCCUCAGAGCUCGAGAACAUCUUCGGAUGCAGAGGAGGCAGGCUUCGGUGGCGCGAUAGCGCCAACGUCCUCAACCUCCAAUGCAUCCCACCACAUGAUGAUGCCUGAAGAGCCUUGGUUUUUUG

Variants of B1 are the subject of this data set. Briefly: polymerase ribozyme fitness, log enrichment relative to wild type (log ratio); higher = more active; in vitro selection for triplet polymerase activity. In short, it runs like this: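 Both subunits of a heterodimeric triplet polymerase ribozyme were given their own mutant library, built by PCR and transcribed. Each library was annealed with a biotinylated primer, the partner subunit and triplets, incubated frozen at −7 °C, and its extended constructs gel-excised, captured on streptavidin beads and amplified by RT-PCR, all in one round done in triplicate. Fitness is the logarithm of genotype enrichment relative to wild-type enrichment, with replicates averaged by inverse-variance weighting. That logarithm is base 2, and Illumina-sequenced genotypes needed ≥10 input reads and ≥1 read per output.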
Take GACCUAUCUGCCCUCAGAGCUCGAGAACAUCUUCGGAUGCAGAGGAGGCAGGCUUCGGUGGCACGAUAGCGCCAACGUCCUCAACCUCCAAUGCAUCCCACCACAUGAUGAUGCCUGAAGAGCCUUGGUUUUUUG: the “polymerase ribozyme fitness (log ratio)” value is -0.665. The figure for GACCAAUCUGCGCUCAGUGCUCGAGAACAUCUUCGGAUGCAGAGUAGGCAGGCUUCGGUGGCUCGAUAGCGCCAACGUCCUCAACCUACAAUGCAUCCCACCACAUGAUGAUGCCUGAAGAGCCUUGGUUUUUUG is -5.09; for GACCAAUCUGCCCUCAGAGCUCGAGAACAUCUUCGGAUGCAGAGGAGGCAGGCUUCGGUGGCGCGAUAGCGCCAAUGUCCUCAACCUCCAAUGCAUCCCACCACAUGAUGAUGCCUGGAGAGCCUUGGUUUUUUG it is -0.0957; for GACCAAUCUGCCCUCAGAGCUCGAGAACAUCUUGGGAUGCAGAGGAGGCAGGCUUCGGUGGCGCGAUAGCGCCAACGUCCUCAACCUCCAAUGCAUCCCACCACAUGAUGAAGCCUGAAGAGCCUUGGUCUUUUG it is -6.03. As for GACCAUUCUGCCCUCAGAGCUCGAGAACAUCUUCGGAUGUAGAGGAGGCAGGCUUCCGUGUCGCGAUAGCGCCAACGUCCUCAACCUCCAAUGCAUCCCCCCACAUGAUGAUACCUGAAGAGCCUUGGUUUUUUG, the figure is -3.51; as for GACCAAUCUGCCCUCAGAGCUCGAGAACAUCUUCGGAUGCAGAGGAGGCAGGCUUCGGUGCCGCGAUAGCGCCAACGUCCUCAACCUCCAAUGCAUCCCACCACAUGAUGAUGCCUGAAGAACCUUGUUUUUUUU, -3.92. The figure for GACCAAUCUGCCCUCAGAGCUCGAGAACCUCUUCGGAUGCAGAGGAGACCGGCUUCGGUGGCGCGAUAGCGCCAACGUCCUCAACCUCCAAUGCAUCCCACCACAUGAUGAUGCCUGAAGAGCCUUGGUUUUUUG is -3.87; for GACCAAUCUGCCCUCAGAGCUCGAGAACAUCUUCGGAUCCUGAGGAGGCAGGCUUCGGUGGCGCGAUAGCGCCAACGUCCUCAACCUCCAAUGCAUCCCACCACAUGAUGAUGCCUGAAGAGCCUUGGUUUUUUG it is -2.47; for GACCAAUCUGCCCUCCGAGCUCGAGAACAUCUUCGGAUGCAGAGGAGGCAGGCUUCGGUGGCGCGAUAGCGCCAACCUCCUCAACCUCCAAUGCAUCCCACCACAUGAUGAUGCCUGAAUAGUCUUGGUUUUUUG it is -2.57.

Take GACCAAUCUGCCCUCAGAGCUCGAGAACAUCUUCGGAUGCAGAGGAGGCAGGCUUCGGUGGCGUGAUAGCGCCAACGUCCUCAACCUCCAAUGCAUCCCUCCACAUGAUGAUGCCUGAAGAGCCUUGGUAUUUUG: the “polymerase ribozyme fitness (log ratio)” value is -1.02.

With GACCAAUCUGCCCUCAGAGCUCGAGAACAUCUUCGUAUGCAGAUGAGGCAGGCUUCGGUGGCGCGAUAGCGCCAACGUCCUCAACCUCCAAUGCAUCCCACCACAUGAUGAGGCCUGAAGAGCCUUGGUUUUUUG, the “polymerase ribozyme fitness (log ratio)” value was -4.18. The figure for GACAAAUCUGCCCUCAGAGCUCGAGAACAUCUUCGGAUGCAGAGGAGGCAGGCUUCGGUGGCGCGAUAGCGCCAACGUCCUCAACCCCCAAUGCAUCCCACCACAUGAUGAUGCCUGAAAAGCCUUAGUUUUUUG is -0.66; for GACCAAUCUGCCCUCAGAGCUCGAGAACAUCUUCGGAUGCAGAUGAAGCAGGCUUAGGUGGCGCGAUAGCGCCAACGUCCUCAACCUCCAAUGCAUCCCACCACAUGAUGAUGCCUGAAGAGCUUUCGUUAUUUC it is -3.28; for GACCAAUCUGCCCUCAGAGCUCGAGAACAUCUUCGGAUGCAGAGGAGGCAGGCUUGGGUGGCGCGAUAGCGCCAACGUACUCUACCUCCCAUGCAUCCCACCACAUGAUGAUGACUGAAGAGCCUUGGUUUUUUG it is -7.42. GACCAAUCUGCCCUCAGAGCUCGAGAACAUCUUCGGAUGCAGAGGAGGCAGGCUUAGGUGGCGCGAUAGCGCCAACGUCUUCAACCUCCAAUGCAUCCCACCACAUGAUGAUGCCUGAAGAGCCUUGGUUUUUUG: the “polymerase ribozyme fitness (log ratio)” value is -1.23. As for GACCAAUCUGCCCUCAGAGCUCGAGAACAUCUUCGGAUGCAGAGGAGCCAGGCUUCGGUGUCGCGAUAGCGCCAACGUCCUCAACCUCCAAUGCAUCCCACCACAUGAUGAUGCCUGAAGAGCAUUGGUUUUUUG, the figure is 1.51; as for GACCAAUCUGCCCUCAGAGCUCGAGAACAUCUUCGGAUGCAGAGGAGGCAGGCUUUGGUGGCGAGAUAGCGCCAACGUCCUCAACCUCCAAUGCAUCCCACCACAUGAUGAUGCCUGAAGAGCCUUGGUUUUUUG, -7.74. As to GACCAAUCUGCCCUCAGAGCUCGAGAACAUCUUCGGAUGCAGAGGAGGCAGGCUUCGGUGGCGCGAUAGCGCCAACGUCCUCAAGCUCUAAUGCAUCCCACCACAUGAUGAUGCCUGAAGAGCCUUGGUUUUUUG, the “polymerase ribozyme fitness (log ratio)” value is -0.78. The figure for GACCAAUCUGCCCUCAGAGCUCGAGAACAUCUUCGGAUGCAGAGAAGGCAGGCUUCGGUGGCGCGAUAGAGCCAACGUCCUCAAACUCCAAUGCAUCCCACCACAUGAUGAUGCCUGAAGAGCCUUGGUUUUCUG is -4.78; for GACGAAUCUGCCCUCAGAGCUCGAGAACAUCUUCGGAUGCAGAGGAGGCUGGCUUCGGUGGCGCGAUAGCGGCAACGUCCUCAACCUCCAAUGCAUCCCACCACAUGAUGAUGCCUGAAGAGCCUUGGUUUUUUG it is -3.42; for GACCAAUCUGCCCUCAGAGCUAGAGAACGUCUUCGGAUGAAGAGGAGGCAGGCUUCGGUGGCUCGAUAGCGCCUACGUCCUCAACCUCCAAUACAUCCCACCACAUGAUGAUCCCUGAAUAGCCUUGGUUUUUUG it is -7.43. The figure for GACCAAUCUUCCCUCAGAGCUCGAGAACAUCUUCGGAUGCAGAGGAGGCAGGCUUCGGUGGCGCGAUAGCGCCAACGUCCUCAACCUCCAAUGCAUCCCACCACAUGAUGAUGCAUGAAGAGCCUUGGUUUUUUG is -0.281; for GACCAAUCUGCCCUCAGAGCUCGAGAACAUCUUCGGAUGCAGAGUAGGCAGGCUUCGGUGGCGCGAUAGCGCCAACGUCCUCAACCUCCAAUGAAUCCCACCACAUGAUGAUGCCUGAAGAGCCUUGGUUUUUUG it is -1.66; for GACUCAUCUGCCCUCAGAGCUCGAGAACAUCUUCGGAUGCAGAGGAGGCAGGCUUCCGUGGCGCGAUUGCGCUAACGUCCUCAACCUCCAAUGCAUCCCACCACAUGAUGAUGCUUGAAGAGCUUUGGUUUUUUG it is -6.74. As for GACGAAUCUGCCCUCAGAGCUCGAGAACAUCUUCGGAUGCAGAGGAGGCAGGCUUCGGUGGCGCGAUAGCGCCAACGUCCUCAACCUCCAAUGCAUCCCACCAUAUGAUGAUGCCUGAAGAGCCUUGGUUUUUUG, the figure is -0.878.

Regarding GACCAAUCUGCCCUCAGAGCUCGAGAACAUCUUCGGAUGCAGAGGAGGCAGGCGGCGGUGGCGCGAUAGCGCAAACGUCCUCAACCUCCAAUGCAUCCCACGACAUGAUUAUGCCUGAACAGCCUUGGUUUUUUG, the “polymerase ribozyme fitness (log ratio)” value is -7.7.

With GACCAAUCUGCCCUCAGAGCUCGAGAACAUCUUCGGAUACAGAGGAGGCAGGCUUCGGUGGCGCGAUAGCGCCAACGUCCUCAACCUCCAAUGCAUCCCACCACAUGAUGAUCCCUGAUGAGCCUUGGUUUUUUG, the “polymerase ribozyme fitness (log ratio)” value was -3.54.

Take GACCAAUCUGCCCUCAGAGCUCGAGAACAUCUUCGGAUGCAGAGGAUGCAGGCUUCGGUGGCGCGAUAGCGCCAACGUCCUCAACCUCCAAUGCAUCCCUCCACAUGAUGAUGCCUGAAGAGCCUUGGUUUUUUG: the “polymerase ribozyme fitness (log ratio)” value was -2.31. GACCAAUCUGCCCUCAGAGCUCGAGAACAUCUUCGGAUGCUGAGGAGGCAGGCUUCGGUGGCGCGAUAUCGCCAACGGCCUCAACCUCCAAUGCAUCCCACCACAUGAUGAUGCCUGAAGAGUCUUGGUUUUUUG: the “polymerase ribozyme fitness (log ratio)” value amounted to 1.47. GACCAAUCUGGCCUCAGAGCUCGAGAACAUCUUAGGAUGCAGAGGAGGCAGGCUUCGGUGGCGCGAUAGCGCCAACGUCCUCAACCUCCAAUGCAUCCCACCACAUGAUGAUGCCUGAAGAAACUUGGUUUUUUG: the “polymerase ribozyme fitness (log ratio)” value was -1.19. The figure for GACCAAUCUGCCCUCAGAGGUCGAGAACAUCUUCGGAUCCAGAGGAGGCAGGCUUCGGUGGCGCGAUAGCGCCAACGUCCUCAACCUCCUAUGUAUCCCACCACAUGAUGAUUCUGGAAGAGCCUUGGUUUUUUG is -1.36. As for GACCAAUCUGCCCUCAGAGCUCGAGAACAUCUUCGGAUGCAGAGGAGGCAGGCUUCGGUGGCGCGAUAGCGGCAACGUCCUCAACCUCCAAUGCAUCCCACCACAUGAUGUUGCCUGAAGAGCCUUGGUUUUUUG, the figure is -3.82; as for GACCAAUCUGCCCUCAGAGCUCGAGAACAUCUUCGGAUGCAGAGGAGGCAGGCUUCGGUGGCGCGAUAGCGCCAACGUCCUCAACCUCUAAUGCAUCCCACCACAUGAUGAUGCCUGAAGUGCCUUGGUUUUUUG, 2.14; as for GACCAAUCUGCCCUCAGAGCUCGAGAACAUCUUCGGAUGCAGAGGAAGCAGGCUUCGGUGGCGUGAUAGCGCCAACGUCCUCAACCUCCAAUGCAUCUCACCACAUGAUGAUGCCUGAAGAGCCUUGGUUUUUUG, -2.79. With GACCAAUCUGCUCUCAGAGCUCGAGAACAUCUUCGGAUGCAGAGAAGGCAGGCUUCGGUGGCGCGAUAGCGCCAACGUCCUCAACCUCCAAUGCCUCCCACCACAUGAGGAUGCCUCGAGAGCCUUGGUUUUUUG, the “polymerase ribozyme fitness (log ratio)” value was -5.62. As for GACCAAUCUGCCGUCAGAGCUCGAGAACAUCUUCGGAUGCAGAGGAGGCAGGCUUCGGUGGCGCGAUAGUGCCAACGUCCUCAACCUCCAAUGCAUCCCACCACAUGAUGAGGCCUGAAGAGCCUUGGUUUUUUG, the figure is -2.26. As for GACCAAUCUGCCCUCAGAGCUCGAGAACAUCUUCGGAUGCAGAGGAGGCAGGCUUCGGUGGCGCGAUAGCGCCAUCGUCCUCAACCUCCAAUGCAUCCCACCACAUGAUUAUGCCUGAAGUGCCUUGGUUUUUUG, the figure is -1.08.

Turning to GACCAAUCUGCCCUCAGAGCUCGAGAACAUCUUCGGAUGCAGAGGAGGCAAGCUUCGGUGGCGCGAUAGCACCAACGUCCUCAACCUCCAAUACAUCCCACCACAUGAUGAUGCCUGAAGAGCCUUGGCUUUUUG, the “polymerase ribozyme fitness (log ratio)” value was -5.9. In the case of GGCCAAUCUGCCCUCAGAGCUCGAGAACAUCUUCGGAUGCAGAGGAGGUAGGCUUCGGUGGCGCGAUAGCGCCAACGUACUCAACGUCCAAUGCAUCCCACCACAUGAUGAUGCCUGAAGAGCCUUGGUUUUUUG, the “polymerase ribozyme fitness (log ratio)” value is -2.96. In the case of GACCAAUCUGCCCUCAGAGCUCGAGAACAUCUUCGGAUGCAGAGGUGGCAGGCUUCGGUGGCACGAUAGCGCCAACGUCCUCAACUUCCAAUGCAUCCCACCACAUGAUGAUGCCUGAAGAGCCUUGGUUUUUUG, the “polymerase ribozyme fitness (log ratio)” value was -2.45.

In the case of GACCAAUCUGCCCUCAGAGCUCGAGAACAUCUUCGGAUGCAGAGGAGGCAGGCUUCGGUGGCGCGAUAGCGCCAACGUCCUCAACCUCCGAUGCAUUCCACCACAUGAUGAUGCCUGAAGAGCCUUGGUUUUUUG, the “polymerase ribozyme fitness (log ratio)” value came to 0.255.

In the case of GACCAAUCUGUCCUGAGAGCUCGAGAACAUCUUCGGAUGCAGAGGAGGCAGGCUUCGGCGGCGCGAUAGCGCCAACGUCCUCAACCUCCAAUGCAUCCCACCACAUGAUGAAGCCUGAAGAGCCUUGGUUUUUUG, the “polymerase ribozyme fitness (log ratio)” value was -4.15.
